The target of this series is T1, A2 domain of von Willebrand Factor (vWF-A2, recombinant), P04275.
T1 chain: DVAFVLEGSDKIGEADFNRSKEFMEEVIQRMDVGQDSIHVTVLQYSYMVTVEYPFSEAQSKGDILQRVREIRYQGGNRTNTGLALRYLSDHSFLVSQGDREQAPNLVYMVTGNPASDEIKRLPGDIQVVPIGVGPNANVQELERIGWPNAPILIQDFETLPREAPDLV

The values that follow come from US20180135012A1.

B1: ADAMTS13 fused to the extracellular domain of GPA, expressed on K562 erythroleukemia cells (protein)
chain: AAGGILHLELLVAVGPDVFQAHQEDTERYVLTNLNIGAELLRDPSLGAQFRVHLVKMVILTEPEGAPNITANLTSSLLSVCGWSQTINPEDDTDPGHADLVLYITRFDLELPDGNRQVRGVTQLGGACSPTWSCLITEDTGFDLGVTIAHEIGHSFGLEHDGAPGSGCGPSGHVMASDGAAPRAGLAWSPCSRRQLLSLLSAGRARCVWDPPRPQPGSAGHPPDAQPGLYYSANEQCRVAFGPKAVACTFAREHLDMCQALSCHTDPLDQSSCSRLLVPLLDGTECGVEKWCSKGRCRSLVELTPIAAVHGRWSSWGPRSPCSRSCGGGVVTRRRQCNNPRPAFGGRACVGADLQAEMCNTQACEKTQLEFMSQQCARTDGQPLRSSPGGASFYHWGAAVPHSQGDALCRHMCRAIGESFIMKRGDSFLDGTRCMPSGPREDGTLSLCVSGSCRTFGCDGRMDSQQVWDRCQVCGGDNSTCSPRKGSFTAGRAREYVTFLTVTPNLTSVYIANHRPLFTHLAVRIGGRYVVAGKMSISPNTTYPSLLEDGRVEYRVALTEDRLPRLEEIRIWGPLQEDADIQVYRRYGEEYGNLTRPDITFTYFQPKPRQAWVWAAVRGPCSVSCGAGLRWVNYSCLDQARKELVETVQCQGSQQPPAWPEACVLEPCPPYWAVGDFGPCSASCGGGLRERPVRCVEAQGSLLKTLPPARCRAGAQQPAVALETCNPQPCPARWEVSEPSSCTSAGGAGLALENETCVPGADGLEAPVTEGPGSVDEKLPAPEPCVGMSCPPGWGHLDATSAGEKAPSPWGSIRTGAQAAHVWTPAAGSCSVSCGRGLMELRFLCMDSALRVPVQEELCGLASKPGSRREVCQAVPCPARWQYKLAACSVSCGRGVVRRILYCARAHGEDDGEEILLDTQCQGLPRPEPQEACSLEPCPPRWKVMSLGPCSASCGLGTARRSVACVQLDQGQDVEVDEAACAALVRPEASVPCLIADCTYRWHVGTWMECSVSCGDGIQRRRDTCLGPQAQAPVPADFCQHLPKPVTVRGCWAGPCVGQGTPSLVPHEEAAAPGRTTATPAGASLEWSQARGLLFSPAPQPRRLLPGPQENSVQSSACGRQHLEPTGTIDMRGPGQADCAVAIGRPLGEVVTLRVLESSLNCSAGDMLLLWGRLTWRKMCRKLLDMTFSSKTNTLVVRQRCGRPGGGVLLRYGSQLAPETFYRECDMQLFGPWGEIVSPSLSPATSNAGGCRLFINVAPHARIAIHALATNMGAGTEGANASYILIRDTHSLRTTAFHGQQVLYWESESSQAEMEFSEGFLKAQASLRGQYWTLQSWVPEMQDPQSWKGKEGTYPYDVPDYALSTTEVAMHTSTSSSVTKSYISSQTNDTHKRDTYAATPRAHEVSEISVRTVYPPEEETGERVQLAHHFSEPEITLIIFGVMAGVIGTILLISYGIRRLIKKSPSDVKPLPSPDTDVPLSSVEIENPETSDQ
B1: the “enzymatic cleavage of vWF subdomain A2 detected by Western blot” value is listed as “the cell-expressed ADAMTS13 (lane 4) appears more active than the recombinant ADAMTS13 (lane 2), despite the fact that there is 6× less cell-expressed ADAMTS13 (13ng) than recombinant ADAMTS13 (75 ng) in the assay”.

B2: recombinant ADAMTS13 (protein)
chain: AAGGILHLELLVAVGPDVFQAHQEDTERYVLTNLNIGAELLRDPSLGAQFRVHLVKMVILTEPEGAPNITANLTSSLLSVCGWSQTINPEDDTDPGHADLVLYITRFDLELPDGNRQVRGVTQLGGACSPTWSCLITEDTGFDLGVTIAHEIGHSFGLEHDGAPGSGCGPSGHVMASDGAAPRAGLAWSPCSRRQLLSLLSAGRARCVWDPPRPQPGSAGHPPDAQPGLYYSANEQCRVAFGPKAVACTFAREHLDMCQALSCHTDPLDQSSCSRLLVPLLDGTECGVEKWCSKGRCRSLVELTPIAAVHGRWSSWGPRSPCSRSCGGGVVTRRRQCNNPRPAFGGRACVGADLQAEMCNTQACEKTQLEFMSQQCARTDGQPLRSSPGGASFYHWGAAVPHSQGDALCRHMCRAIGESFIMKRGDSFLDGTRCMPSGPREDGTLSLCVSGSCRTFGCDGRMDSQQVWDRCQVCGGDNSTCSPRKGSFTAGRAREYVTFLTVTPNLTSVYIANHRPLFTHLAVRIGGRYVVAGKMSISPNTTYPSLLEDGRVEYRVALTEDRLPRLEEIRIWGPLQEDADIQVYRRYGEEYGNLTRPDITFTYFQPKPRQAWVWAAVRGPCSVSCGAGLRWVNYSCLDQARKELVETVQCQGSQQPPAWPEACVLEPCPPYWAVGDFGPCSASCGGGLRERPVRCVEAQGSLLKTLPPARCRAGAQQPAVALETCNPQPCPARWEVSEPSSCTSAGGAGLALENETCVPGADGLEAPVTEGPGSVDEKLPAPEPCVGMSCPPGWGHLDATSAGEKAPSPWGSIRTGAQAAHVWTPAAGSCSVSCGRGLMELRFLCMDSALRVPVQEELCGLASKPGSRREVCQAVPCPARWQYKLAACSVSCGRGVVRRILYCARAHGEDDGEEILLDTQCQGLPRPEPQEACSLEPCPPRWKVMSLGPCSASCGLGTARRSVACVQLDQGQDVEVDEAACAALVRPEASVPCLIADCTYRWHVGTWMECSVSCGDGIQRRRDTCLGPQAQAPVPADFCQHLPKPVTVRGCWAGPCVGQGTPSLVPHEEAAAPGRTTATPAGASLEWSQARGLLFSPAPQPRRLLPGPQENSVQSSACGRQHLEPTGTIDMRGPGQADCAVAIGRPLGEVVTLRVLESSLNCSAGDMLLLWGRLTWRKMCRKLLDMTFSSKTNTLVVRQRCGRPGGGVLLRYGSQLAPETFYRECDMQLFGPWGEIVSPSLSPATSNAGGCRLFINVAPHARIAIHALATNMGAGTEGANASYILIRDTHSLRTTAFHGQQVLYWESESSQAEMEFSEGFLKAQASLRGQYWTLQSWVPEMQDPQSWKGKEGT
In the case of B2, the “enzymatic cleavage of vWF subdomain A2 detected by Western blot” value is on record as “the cell-expressed ADAMTS13 (lane 4) appears more active than the recombinant ADAMTS13 (lane 2), despite the fact that there is 6× less cell-expressed ADAMTS13 (13ng) than recombinant ADAMTS13 (75 ng) in the assay”.
